Reference: a protein production outcome set (Wang et al. 2014)

Experiment: label from the status in PepcDB records
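Note: failed if final PepcDB status was selected cloned or expressed and not failed if soluble or beyond.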

Row | Sequence | protein production
1 | MKTFIWNSNYETGVAKVDDQHQCLVEIINEYSHLLANNTTTETDIELTLNKLIDYTKFHFKDEEQLMYSVGLDTRHITHHEKLHRDILDEISTLLSDQVTDKLSIARYILDLIIHWLVYHILGTDMNMAKQMKAIQGGLSARDAYDFEEKIKDKSTEPLLEALNALFIQISERNKDLMELNKTLEAKVISRTQQLSERNKELAILSLTDPLTNMANRRHAMQQLTLLWEESVNNNLPLSCLMIDVDYFKQINDTHGHDIGDVVLIELARVFQHAIRTDDIACRLGGDEFFIICPATELEGGLLIAELINEQVESLSIDISDSQLSLSTSIGVATKTAQMTSIEDLMKAADDGVYSAKSNGRGCTKSIQ | failed
2 | MNTMLNPHYQQIWQTVQLIPQGKVACYGQIADLAGLPGRARLVGKSLGKVPKDGWRGQRVPWFRVINSQGKISFPPGSENFDKQKHHLQDEQVVVIGSRIKLKEFQWKPDLSELLFSLEFLEHHHHHH | failed
3 | MNTVFFYLQVSIKNLHDSIKNLRVSIKNLYVSIKGAGITAFLQTVKYERFEEKILMDFISNLFGRDKNQSFLEASKQGQTENVEKLLRSNKVDVNYQDAYGKTALISAADKGYRDVIGLLIESGPNLDLQDENGNTALISAAKIERGDIIDLLVKNGADLNFQDENGETALKFAVKVGYKNIADQLIDAGTDLNIQDENGETALICAADRAHRDIAELLIKAGADLNIQDNSGKTALVAATKIGHKGIVELLVNAGADLNLQDKNGNTALIYAADRGYRDIVNLLIEGGASLNIPDEAGLTALMFSAQTGRKDIVELLIKAGADINIEDKNNKTAADLAAEVGFEEIVDLLTSVRTYSSS | failed
4 | MTHTITIVGLGNYGIDELPLGIYRFLEKESKVYARTLNHPVINTLKKEIEFESFDSIYEAHDRFEDVYEAIVTSLIELAQSEDIVYAVPGHPRVAETTTVKLLEYSHFNKDISVKVLGGKSFIDDIFEAVDVDPNDGFTLLDGTSLKESALNVRTNTVITQVYSVMIAADLKLTLMERYPDDFNVKIITGSHSDGAHVIECPLYEIDRYDDYFNNLTSLFIPKINEDTLLYQDFDYAVQTIDLLVDNEKGCPWDKVQTHDSLKRYLLEETFELFEAIDNEDDWHMIEELGDILLQVLLHSSIGKKEGYIDIKEIIESLNTKMIHRHPHIFGNAHVTSQEDLKDIWSRAKEKEGKVPRVKFEKVFADHFLKLYDKTKNRQFDEDDLKQFLQQGEKNS | failed
5 | MSGSPGIESVPGPELPKIEFLDRFNAKNQKFYAENDARFKDSPLLKKLLENSKLNKEKNEREIQDKYCLRGAEWGVGDCSTTGMTDEEKEKFITMLKKKTGVE | failed
6 | MTEARKIPKPSFPYGSPGELNSFLPYLLTRITHIWSSELNQALASEKLPTPKLRLLSSLSAYGELTVGQLATLGVMEQSTTSRTVDQLVDEGLAARSISDADQRKRTVVLTRKGKKKLAEISPLINDFHAELVGNVDPDKLQTCIEVLGEILKGKTDY | not failed
7 | MHEDRKRRRGKLRTAVHFKAPRRARFSRFPLFPRLNPMPAAPTDAHAALPIALRDLIRLHAPQATLLAAIGQRILNIQAEGAPTEEAQLVPPDDWLEHGDLAWITRDGALLGLLWSDGAPVPDGAVQVLTLLLSAASAEGASREADMLITQLPAATAWLSAELEFRQVSRTFLELFGLTGADVLGRTVHEVFPDHAALAQQLDSAAAGRAVQLGDERVPSLPGHSGERWLRGSARPYFGGAAAGVLWTVQDVSTEHTQTTQFAALLGTDLPLALLGPGGAVQGASRGMRQLLGEPEDLAEAQAHPQRPLHEWPCWAPAGARLLQDLIQSAEAGRPSPVPSEIALARGGQLPLLVRRSDTVPGLLLAEGVRPAAVSEDNGAARLLHLSGAATILLDPQGRVQLISEPAARLLGFDPHNIALTGLPLPRLHQQLGIKLHTPQGNPLTVPPLSALTLPHNGEVLAVLPGGVTRHLEISLSALPGSGQSTGSSAASPGRSAAPELLLSLRDVTTLRRAQAKLRHDASHDGLTGLLNRSGLRAALGQATAAQTGGMVACLDIDGFGGLNAALSRTAGDLLLIQVAARLNDLAELEGGQAARLADDTFAVYLPQLGAAVGGQKLQAALREPLRTGKRLVPVTFSLGAAPLLAAAPEQALADAEVALQHARRQGRGQLTVFEPDMRAEEAQTFELEDQLRAVLDRGLQHEQFSLLYQPAVSLKDGRVLGAEALLRWTHPELGNVSPARFLPLAQRSDLITSIGEWVVREAVQGRTQLRDATGQRNWRTSVNLSLEELRREGAIERLLPLITRPSALDIEVSASSLLDHSEETLGLLDALRARGARLIVDDFGDGASSLTALTQFPLYGVKLHPTLTTRLPGDQKSLKLVQGTVSLAHSLGLTVTAVGVETYAQLDMLRDLGCDAAQGYALTPPLSAGDLVTWVQGR | failed
8 | MKFDDSKPIYKQIVHYIHTEIVTGTYEAGDKLLSVRELATKLEVNPTTIQRAYAELEEAGIIFTVRGTGKYLTEDKRRIEQLENHIAKQLTENFISEMSKLGINKEKIIAWVKKVEEVEVNASGK | failed
9 | IVAQGEDFVVSGALNLSLIRERTGFQAKATEDYQTLAGLVMSLLDRLPSTGDSLSWQGWNLQVVGVEERRVTRVLLQKQPAASAGK | failed
10 | MRVAVVGATGAVGREILKVLEARNFPLSELRLYASPRSAGVRLAFRGEEIPVEPLPEGPLPVDLVLASAGGGISRAKALVWAEGGALVVDNSSAWRYEPWVPLVVPEVNREKIFQHRGIIANPNCTTAILAMALWPLHRAFQAKRVIVATYQAASGAGAKAMEELLTETHRFLHGEAPKAEAFAHPLPFNVIPHIDAFQENGYTREEMKVVWETHKIFGDDTIRISATAVRVPTLRAHAEAVSVEFARPVTPEAAREVLKEAPGVEVVDEPEAKRYPMPLTASGKWDVEVGRIRKSLAFENGLDFFVVGDQLLKGAALNAVQIAEEWLKGA | not failed
11 | MLLTIIYIIAITAEAMTGALSAGRRSMDWFGVILIACVTALGGGSVRDVLLGHYPLTWVKHPEYLVLTCCAALFTILIAKWMRHLRNIFLILDALGLIGFTIIGCQIALQMGHGFVVSAVAGVLTGVSGGILRDILCNDVPLVFRRELYASISFVAVICYWLCLNIGMSLELTVIFTLIFGFVLRLIAIYFGLEMPKFIYQEDDADSASSTDKH | failed
12 | MVSPKKESKSMKILKNLALPIAMALGVLAWPILSPLSFLIPYMIFLMLFFTFLKISPRDMHFSRLHLLLALIQITLAIGGFFAFRLLDPIVAEGVMICFICPAATASSVIIGMLGGNIAFGATYVLLTHMGVAVLGPLLFSSLSTAHADMPFWSSVIHILWGVLPLVVVPLLAAWIIRFTSPRTHARLLRIPQMAFWLWVTSLAIIMAKTTGYVMAQGSDSIRLELLLALGGLLSCLLQFGLGKWLSKRYLKESITAGQALGQKNTSLAIWMSLTYLNPIASIAPASYVVWQNSLNSIQIWLYDKRKNKTDRQ | failed
13 | MTGMRKTLKATLAEARAQVEAALKEEGFGILTEIDVAATLKAKLGLEKPPYLILGACNPNLAARALEALPEIGLLLPCNVVLREAEEGVEVLIQDPKEMFRVLPEATQRALAPVAEEARTRLSRALSRL | not failed
14 | MHTISLKRILIYIVLLVTSFALLVGFTVNIVSQVAQYQESLHDQALSYSRIVAGNAASSLVFNDNANEKQRLSSLENTSFIQHVHVYKMDETSNELTFFSSYNKKGLPPIPARFAKLDKLTTPQTNDNYIEVSQPVVLDDEVIGYVYLRGSLEQARLFMWRSIGIASVVFVLTLLLCWLITLRLRKTIVTPLDSVVDVISQVARDKNYSLRLAPSKLVEFDMMAHAFNTMLDRVQQHISRQRRAEEEASQLNTELERQVTQRTQALKESNSELLKTLEQLHQYQGQLVESEKMASLGDMVAGIAHEVNTPIGLSVTASTLLQDKLTIMQEKFDEKRISTSEFERFLSDCDENLQIIYRNLGRAADLVTSFKQVAVDQSSEIDRDIHIPSFMNDVLISVKPRRLDPEKFPIRISCPEGLTVRAKAGPLNQVLINLIVNSMIHAFEGYSSGRVDISFTMVGDDKLEMVYTDNGKGVPSDINRKIFDPFVTTKRGSGGSGLGLHLVYNLVTQVLGGNIHFFSEEKNGVEFIVRFPVTLVSNA | failed
15 | NQLSGLHSMEEQLAKKLQIKKCLVVQGDSDDTPWVREEMGRVAVEQLDMALTEKRNIVAVMGGSTMATVAEMMTTDFAKGRELLFVPGRGGIGEDLDNQANTICDKMATKTNTKHRVLYVPEQLGEEAYRSLLKEPAIQEGLRLVQSANAIILGIGDALAMAKRRHTGEDVLEKIIRRKAVGEAFGYYFDEQGEVVHKVPTFGLQFEDLAQIPHIIAVAGGTSKAKAIKSYMKSAPKNTILITDEGAAKSLLK | not failed
16 | MIVRSKPNLISVLISLKGSIAKRIALRSLLVTLLASAIVLIETLHPAYFSKVNATPFTLLGLSLSIFMSFRNNACYDRWYEARKALGTVVTEVRSMIRETQVLEDTRARSAILRDLCGFAHALKARLRREDELSAAETWLSQLPPASTSNLPDSLLRQIARQCSDQAQAGRLSEWRYLLLANQLAAITGAQSTCERIKATPLPFPYTLLLHRTSYMFCILLPFAMAEPLGWLTPIFTAIVSYTFFGLDAIGDELEDPFGHDENDLPLSAIVRNIEREILEALGATELPPALEPVDYVLS | failed
17 | PEQIWAKQQKDGSWLMDALIPLNELKYKLGLTTIEGEESEGFQTLNGFLTWWLGRLPHAGELVDYEGWQFEVLNVKHHRIVQVKVSRET | failed
18 | MQSAKEKISDMASTAKEKLNIGGAKAQGHAEKTMARTKKEKKLAQEREKSKEAQAKADLHQSKAEHAADAQVHGHHLPGHSTYPTRATGANYPPGQI | failed
19 | MPLASGQVFAGFTIVRLVGTGGMGEVYLAKHPRLPREDALKVLPISVSADDEFRQRFIREADMAATLWHPHIVGVHDRGEFEGRLWISMDYVDGHDAARLLHDKYPKGMPADDVVEIVTAVGDALDYAHQRQLLHRDVKPANILVTEKHGTKRRIMLTDFGIARRTDDVNGLTSTNITVGSMSYTSPEQLMGQPLDGRADQYSLAATAYRLLTGAPPFSHSNPAVVISHHLNSPPPKLGDTKPALAKLDSVMAKALAKDAKDRFDTCHDFAVALAEANKGDESAAPVTAAPPPVITPPVQTAPPTTPLKAQTLPAPPTPPTPLSPSNPQAPTASQPPVFTSSWAGHDDPSGRQPVAVPAPAPPPPPPPSNFGPPPPAYSPPPRKSGGDRRKLIIAAAAIGAVVLLVGGITLAVTSGGDNDSAGAAATTSETASETPVTTTPKKPGEHAYTIADYIRDNKISETPVHRGDPNTPELTMPTPPGWADAGTRTPAWAYSAIVNDPASPTDPPSVISLISKLDGNVDPEKLLEFAPNELQNLTEWEPIGGVTRSNLSGFPSVQLGGSYLKDGKRRAITQKTVVVDIPSGIYVLQINADSLYRDFGALVDVNKAIDKEATIKP | failed
20 | MQIKAGLIWMNGAFVPQEEAKTSVLSHALHYGTSVFEGIRAYETAKGPAIFRLKEHVKRFYNSAKVLRMEIPFAPEELEEAIKEVVRRNGYRSCYIRPLAWMGAKALGVNPLPNNPAEVMVAAWEWGAYLGEEAVRKGARLITSSWARFPANVMPGKAKVGGNYVNSALAKMEAVAAGADEALLLDEEGYVAEGSGENLFFVRDGVIYALEHSVNLEGITRDSVIRIAKDLGYEVQVVRATRDQLYMADEVFMTGTAAEVTPVSMIDWRPIGKGTAGPVALRLREVYLEAVTGRRPEYEGWLTYVNGQ | not failed
21 | MLFEQIAANKRKTVFIILGFFIFVLMVGAAIGIIVWNNYLNGLILAAAIGAVYILIMVMSSSSVVMAMNHAKEVTSKEQAPVLWDTVESMAMVAGIPMPKVYIVEDPSPNAFATGISPEKGAVAVTRGLLNKLERYELEGVIAHEISHIRNYDIRLSTIAIALVAVIAILSDLAMRLIFWGSLTGGRNSRKSDNNNGGGAQIIIYVVALIFVILAPIIATAIQFALSRNREYLADASAVELTRNPDGLIQALQKISGDTKKMEEVSASSESIYFSSPLKSKKDKPGLFDSHPPISSRIERLENM | failed
